System: hybrid GFP construct containing the protease cleavage sequence SVPSGCG (SEQ ID NO:21) followed by histidine residues

Substance	Micrograms of GFP Released by Protease (overnight, IMAC beads)	% GFP Released (60 minutes, 37° C.)	µg GFP Released by Protease (60 minutes, 37° C.)	further results
Pepsin	–	–	–	Micrograms of GFP Released by Protease (overnight, IMAC beads, pH 8.0): 0 µg
Crude Bromelain	86 µg	–	–	–
Elastase	94 µg	–	–	release of GFP from beads, worded: The most effective enzyme was elastase, with positive results apparent within five minutes after adding the enzyme
Chymotrypsin	47 µg	11%	10.6 µg	–
Trypsin	–	4.6%	4.07 µg	Micrograms of GFP Released by Protease (overnight, IMAC beads); Trypsin (Sample 1): 9 µg; Micrograms of GFP Released by Protease (overnight, IMAC beads); Trypsin (Sample 2): 56 µg

From patent US20080241867
